Measured values from the FLAb antibody collection (doi:10.1101/2023.12.08.570889).
Changes are numbered by the printed parent chain.

B1: unnamed (protein)
chain 1: QMQLVESGGGVVQPGRSLRLSCAASGFTFRTYGMHWVRQAPGKGLEWVAVIWYDGSNKHYADSVKGRFTITRDNSKNTLNLQMNSLRAEDTAVYYCARSPRYDYYYEAFDVWGQGTMVTVSS
chain 2: SYVLTQPPSVSVAPGQTARITCGGNNLGSKSVHWYQQKPGQAPVLVVYDDSDRPSWIPERFSGSNSGNTATLTISRGEAGDEADYYCQVWDSSSDHVVFGGGTKLTVL
B2: unnamed (protein)
chain 1: B1 chain 1 with Y104E, Y106W
chain 2: B1 chain 2
B3: unnamed (protein)
chain 1: B1 chain 1 with S99A, Y104E, E107D
chain 2: B1 chain 2
B4: unnamed (protein)
chain 1: B1 chain 1 with S99A, Y104D, Y105A
chain 2: B1 chain 2
B5: unnamed (protein)
chain 1: B1 chain 1 with S99A, Y104W, Y105A
chain 2: B1 chain 2
B6: unnamed (protein)
chain 1: B1 chain 1 with S99A, Y105E
chain 2: B1 chain 2
B7: unnamed (protein)
chain 1: B1 chain 1 with S99A, Y104D, Y105D, Y106W
chain 2: B1 chain 2
B8: unnamed (protein)
chain 1: B1 chain 1 with S99A, Y104F
chain 2: B1 chain 2
B9: unnamed (protein)
chain 1: B1 chain 1 with S99A, Y104D, Y106L
chain 2: B1 chain 2
B10: unnamed (protein)
chain 1: B1 chain 1 with S99A, Y104E, Y105R, Y106W
chain 2: B1 chain 2

Target: TSLP, Q969D9
Assay: Kd (SPR)

| Binder | Kd [nM] |
| --- | --- |
| B1 | 337 |
| B2 | 369 |
| B3 | 293 |
| B4 | 99.6 |
| B5 | 404 |
| B6 | 104 |
| B7 | 82.7 |
| B8 | 116 |
| B9 | 99.9 |
| B10 | 494 |
